Percent of parent (% of binding to Fn) and Kd data for 20 substances are collected here from publication PMC4169507.

For the first experiment, the target named is fibronectin (UniProt P02751). Nature of the experiment: bacterial adherence to fibronectin-coated 96-well plates (colony counting). As to conditions: plates coated with 25 µg/ml of fibronectin; in the presence of arabinose; parent: 100; read off a plot.
In the case of “AafA, major subunit of AAF/II, on wild type EAEC 042 T114A”, the percent of parent (% of binding to Fn) came out at 71. On the same count and under the same terms, then “AafA, major subunit of AAF/II, on wild type EAEC 042 R40A”, with 2; and “AafA, major subunit of AAF/II, on wild type EAEC 042 T38L”, with 72. Take “AafA, major subunit of AAF/II, on wild type EAEC 042 S30A”: the percent of parent (% of binding to Fn) amounted to 65.

Regarding “AafA, major subunit of AAF/II, on wild type EAEC 042 E131A”, the percent of parent (% of binding to Fn) was found to be 75. On the same count and under the same terms, next, “AafA, major subunit of AAF/II, on wild type EAEC 042 K72R”: 100; “AafA, major subunit of AAF/II, on wild type EAEC 042 R44A”: 6; “AafA, major subunit of AAF/II, on wild type EAEC 042 N88A”: 70. Still for that read-out and setting: next, “AafA, major subunit of AAF/II, on wild type EAEC 042 S73A”: 80. Consider “AafA, major subunit of AAF/II, on wild type EAEC 042 G69A”, for which the percent of parent (% of binding to Fn) stood at 81. On the same count and under the same terms, next, “AafA, major subunit of AAF/II, on wild type EAEC 042 T77A”: 67; “AafA, major subunit of AAF/II, on wild type EAEC 042 K66A”: 0; “AafA, major subunit of AAF/II, on wild type EAEC 042 K72A”: 6. On to “AafA, major subunit of AAF/II, on wild type EAEC 042 R23A”, for which the percent of parent (% of binding to Fn) worked out at 12. For “AafA, major subunit of AAF/II, on wild type EAEC 042 E57A”, the percent of parent (% of binding to Fn) was found to be 76. The same measure, in the same setting: then “AafA, major subunit of AAF/II, on wild type EAEC 042 K66R”, with 51. Still for that read-out and setting: then “AafA, major subunit of AAF/II, on wild type EAEC 042 D14A”, with 99. “AafA, major subunit of AAF/II, on wild type EAEC 042 L132A”: the percent of parent (% of binding to Fn) is 79.

For a further experiment, the target named is fibronectin (UniProt P02751). Nature of the experiment: SPR.
Conditions: not given
As for “AggAdsA triple mutant (Lys73Ala, Lys76Ala, and Lys78Ala) (domain or fragment)”, the Kd (usually the constant that tells how readily two partners part at equilibrium) is > 200 µM. In turn, “AggBdsA (AAF/I minor subunit AggB complemented with the donor strand of AggA) (domain or fragment)” came in with a dissociation constant Kd of 100 µM.
